# Reference: PMC2671235 (Biochemistry, 2009)
# Ends that are not written are not given here.
# B1: Annexin I peptide (peptide)
# peptide: Ac-AMVSEFLKQAWFIE
# B2: S100A11 (natural protein, human, UniProt P31949 1-105, looked up)
# chain: MAKISSPTETERCIESLIAVFQKYAGKDGYNYTLSKTEFLSFMNTELAAFTKNQKDPGVLDRMMKKLDTNSDGQLDFSEFLNLIGGLAMACHDSFLKAVPSQKRT
# Assays:
# S100A6 [1] = biological target: T1, S100A6 (human, UniProt P06703 1-90); assay: other fluorescence titration
# S100A11 [2] = biological target: B2; assay: other fluorescence titration
# S100A6 [3] = biological target: T1, S100A6; assay: ITC
# S100A11 [4] = biological target: B2; assay: ITC
# Annexin I peptide = biological target: B1; assay: ITC
# S100A10 = S100A10 (human, UniProt P60903 1-97); assay: ITC
# S100A11 [5] = biological target: B2; assay: ITC; remark: listed apart in the source
# Sequence of S100A10 (P60903 whole entry): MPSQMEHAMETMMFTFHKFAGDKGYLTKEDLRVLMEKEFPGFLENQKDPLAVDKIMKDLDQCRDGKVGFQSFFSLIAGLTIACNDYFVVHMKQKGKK
binder,measurement,setting,value
B1,Kd,S100A6 [1],17 ± 4 µM
same,Kd,S100A11 [2],5 ± 1 µM
same,Kd,S100A6 [3],13 ± 4 µM
same,Kd,S100A11 [4],5 ± 2 µM
B2,dH at 15°C,Annexin I peptide,-0.956 kcal/mol
same,dH at 35°C,Annexin I peptide,-7.17 kcal/mol
same,stoichiometry N,Annexin I peptide,2 binding sites per dimer
Ac-STVHEILSKLSLEGY [Annexin II peptide],stoichiometry N,S100A10,2 binding sites per dimer
same,stoichiometry N,S100A11 [5],2 binding sites per dimer
